The assay deals with T1, Mcl-1, Q07820.
T1 chain: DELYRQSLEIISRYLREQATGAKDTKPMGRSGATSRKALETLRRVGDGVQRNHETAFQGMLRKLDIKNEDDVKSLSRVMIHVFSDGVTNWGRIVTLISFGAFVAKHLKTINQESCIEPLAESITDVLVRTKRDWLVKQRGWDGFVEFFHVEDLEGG
Description: peptide SPOT array, c-Myc-tagged receptor at 1 uM or 100 nM, anti-c-Myc-Cy3.

Drawing on paper PMC4072508, “Genome-Wide Prediction and Validation of Peptides That Bind Human Prosurvival Bcl-2 Proteins” (PLoS Computational Biology, 2014), this text covers SPOT signal as a fraction of Bim BH3's signal on the same receptor and array for 20 molecules.

B1: APOL4 (peptide)
chain: KGAKSESAESLRQWAQELEENLNELT
B1 had an SPOT signal as a fraction of Bim BH3's signal on the same receptor and array of 0.01.

B2: ARHGAP4 (peptide)
chain: AEVELEYSRGLEKLAERFSSRGGRLG
On to B2, for which the SPOT signal as a fraction of Bim BH3's signal on the same receptor and array was found to be 0.02.

B3: SLITRK6 (peptide)
chain: QLQTLPYVGFLEHIGRILDLQLEDNK
As for B3, the SPOT signal as a fraction of Bim BH3's signal on the same receptor and array came to 0.02.

B4: NAT10 (peptide)
chain: EPTMKTLSDDLDEAAKEFQEKHKKEV
Molecule B4 came in with an SPOT signal as a fraction of Bim BH3's signal on the same receptor and array of 0.01.

B5: LRRN1 (peptide)
chain: VMGSMFAVISLASIAVYFAKRFKRKN
In turn, B5 had an SPOT signal as a fraction of Bim BH3's signal on the same receptor and array of 0.13.

B6: BCL2L11 (peptide)
chain: MRPEIWIAQELRRIGDEFNAYYARRV
Molecule B6 came in with an SPOT signal as a fraction of Bim BH3's signal on the same receptor and array of 1.

B7: PGS1 (peptide)
chain: LPGRPGLAALLGRLSDRLGRNRDRQR
Take B7: the SPOT signal as a fraction of Bim BH3's signal on the same receptor and array came to 0.24.

B8: MYH10 (peptide)
chain: DPLNDNVATLLHQSSDRFVAELWKDV
Molecule B8 displayed an SPOT signal as a fraction of Bim BH3's signal on the same receptor and array of 0.02.

B9: MACF1 (peptide)
chain: LGKRTGTVQVLKRSGRELIENSRDDT
B9: the SPOT signal as a fraction of Bim BH3's signal on the same receptor and array is 0.05.

B10: KIAA1383 (peptide)
chain: RTGDIALAYRLTDLGSRLLSQLERPL
The molecule B10 displayed an SPOT signal as a fraction of Bim BH3's signal on the same receptor and array of 0.03.

B11: DFFB (peptide)
chain: PQRQRLLADLLHNVSQNIAAETRAED
B11 returned an SPOT signal as a fraction of Bim BH3's signal on the same receptor and array of 0.02.

B12: HEATR7B2 (peptide)
chain: ERMKGTFCIALEKFSKAIYKYVNHWR
Consider B12, for which the SPOT signal as a fraction of Bim BH3's signal on the same receptor and array was 0.37.

B13: SI (peptide)
chain: QISTRLPSDYIYGIGEQVHKRFRHDL
For the molecule B13, the SPOT signal as a fraction of Bim BH3's signal on the same receptor and array came out at 0.12.

B14: CHD2 (peptide)
chain: PFNKEELTAILKFGAEDLFKELEGEE
For the molecule B14, the SPOT signal as a fraction of Bim BH3's signal on the same receptor and array was determined as 0.01.

B15: STOML1 (peptide)
chain: ADLRALLCRELRPLGAYMSGRLKVKG
In turn, B15 showed an SPOT signal as a fraction of Bim BH3's signal on the same receptor and array of 0.37.

B16: SNTG2 (peptide)
chain: NATHEEVVHLLRNALDEVTITVEYLR
In the case of B16, the SPOT signal as a fraction of Bim BH3's signal on the same receptor and array amounted to 0.01.

B17: STX10 (peptide)
chain: LEMVSGSIQVLKHMSGRVGEELDEQG
As for B17, the SPOT signal as a fraction of Bim BH3's signal on the same receptor and array amounted to 0.02.

B18: MED17 (peptide)
chain: KKSLAGAAQILLKGAERLTKSVTENQ
For the molecule B18, the SPOT signal as a fraction of Bim BH3's signal on the same receptor and array is 0.03.

B19: GCN1L1 (peptide)
chain: EEVFQSLSKILDVASLEVLNEVNRRS
Take B19: the SPOT signal as a fraction of Bim BH3's signal on the same receptor and array came to 0.14.

B20: FIGNL2 (peptide)
chain: DISALTASNLLKRYAEKYSGVLDSPY
Molecule B20 registered an SPOT signal as a fraction of Bim BH3's signal on the same receptor and array of 0.03.
